Consider eight molecules from PMC12493166, “The ClpA chaperone and the two adaptor proteins modulate the fate of the model substrate tagged with a SsrA-degron of Leptospira” (Biochemical Journal, 2025).

One test concerns the target ClpS (Escherichia coli) (UniProt P0A8Q6). To be noted: cited from earlier work.
Test [1] has as its target LinClpS2 (Clp adaptor protein ClpS2 of Leptospira interrogans) (L. interrogans serovar Copenhageni strain Fiocruz L1-130) (UniProt Q72RD1).
For test [2], the target named is LinClpS1 (Clp adaptor protein ClpS1 of Leptospira interrogans) (L. interrogans serovar Copenhageni strain Fiocruz L1-130).
Test [3] addresses LinClpS2 (Clp adaptor protein ClpS2 of Leptospira interrogans) (L. interrogans serovar Copenhageni strain Fiocruz L1-130) (UniProt Q72RD1). The experiment in a line: ELISA; LinClpP1, LinClpP2, LinClpS1 or LinClpS2 (1 μM/well) coated overnight at 4°C; blocked with 3% BSA in PBS; ATP-bound LinClpA or LinClpA^∆N (0–3 μM) overlaid 2 hours at 37°C; detected with mouse anti-LinClpA; Kd by Hill plot analysis. For orientation: ELISA stands for enzyme-linked immunosorbent assay.

Test [4] addresses LinClpP1 (ClpP1 isoform of the Clp protease of Leptospira interrogans) (L. interrogans) (UniProt Q72SG6). The test is described as above.
For test [5], the target named is LinClpS1 (Clp adaptor protein ClpS1 of Leptospira interrogans) (L. interrogans serovar Copenhageni strain Fiocruz L1-130). The test is described as above.
Test [6] has as its target LinClpP2 (ClpP2 isoform of the Clp protease of Leptospira interrogans) (L. interrogans) (UniProt Q72R01). The description is as above.
Test [7] deals with LinClpS2 (Clp adaptor protein ClpS2 of Leptospira interrogans) (L. interrogans serovar Copenhageni strain Fiocruz L1-130) (UniProt Q72RD1). This is another data set of the same source.
Sequence of LinClpS2 (Clp adaptor protein ClpS2 of Leptospira interrogans) (L. interrogans serovar Copenhageni strain Fiocruz L1-130) (Q72RD1 whole entry): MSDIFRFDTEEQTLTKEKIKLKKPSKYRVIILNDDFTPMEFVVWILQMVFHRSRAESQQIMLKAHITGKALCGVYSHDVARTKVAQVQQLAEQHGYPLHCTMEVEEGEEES
Test [8] has as its target LinClpS1 (Clp adaptor protein ClpS1 of Leptospira interrogans) (L. interrogans serovar Copenhageni strain Fiocruz L1-130). This is another data set of the same source.
The target in test [9] is LinClpA (ClpA ATPase chaperone of Leptospira interrogans) (L. interrogans serovar Copenhageni strain Fiocruz L1-130). The experiment in a line: ANS dye-binding fluorescence; LinClpA (3 μM) pre-incubated with ATP, GTP, CTP, UTP, ADP or PolyP (2 mM) 20 minutes at 4°C, then ANS (10 μM); excitation 350 nm, emission 400-750 nm; less ANS fluorescence read as oligomerization.
Test [10] concerns the target T1, LinClpA (Leptospira interrogans, UniProt Q8F4D7).
T1 construct: gene clpA; full length, 740 residues, C-terminal 6xHis tag (pET-23a), E. coli BL21 (DE3), Ni-NTA; monomer ~82 kDa, ~492 kDa oligomer with ATP
T1 sequence (Q8F4D7 19-758): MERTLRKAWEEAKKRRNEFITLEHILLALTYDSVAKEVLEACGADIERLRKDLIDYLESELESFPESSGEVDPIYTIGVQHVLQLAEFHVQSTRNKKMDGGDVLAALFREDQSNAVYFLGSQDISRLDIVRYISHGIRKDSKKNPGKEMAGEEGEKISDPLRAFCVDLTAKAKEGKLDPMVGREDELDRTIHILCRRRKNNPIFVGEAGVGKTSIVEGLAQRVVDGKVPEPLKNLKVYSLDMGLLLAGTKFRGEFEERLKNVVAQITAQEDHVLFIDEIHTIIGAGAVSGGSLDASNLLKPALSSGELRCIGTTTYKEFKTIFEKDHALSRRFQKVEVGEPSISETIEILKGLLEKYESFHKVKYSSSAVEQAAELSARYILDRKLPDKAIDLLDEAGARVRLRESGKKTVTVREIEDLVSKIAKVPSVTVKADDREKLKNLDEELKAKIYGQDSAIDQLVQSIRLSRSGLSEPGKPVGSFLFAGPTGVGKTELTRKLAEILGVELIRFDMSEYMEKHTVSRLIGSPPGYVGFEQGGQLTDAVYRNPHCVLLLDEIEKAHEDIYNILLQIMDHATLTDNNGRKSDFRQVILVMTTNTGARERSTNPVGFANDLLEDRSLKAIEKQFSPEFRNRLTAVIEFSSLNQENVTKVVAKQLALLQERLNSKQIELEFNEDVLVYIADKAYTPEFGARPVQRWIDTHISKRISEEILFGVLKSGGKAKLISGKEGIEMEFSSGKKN
The experiment in a line: ANS fluorescence change on oligomerization. To be noted: 2 mM nucleotide, 3 μM protein, 10 μM ANS, 8 mM MgCl2, pH 7.8; indirect, oligomerization read-out. The format is binding.

Test [11] has as its target T1, LinClpA. The experiment in a line: ANS fluorescence change on oligomerization. The test is classed as binding. To be noted: 2 mM nucleotide, 3 μM protein, 10 μM ANS, 8 mM MgCl2, pH 7.8; indirect, oligomerization read-out. As for the experimental part: ANS fluorescence change on oligomerization on LinClpA | pre-incubation of LinClpA with ADP, PolyP or ATP led to reductions in ANS fluorescence
This is another data set of the same source.

The target in test [12] is T1, LinClpA. The experiment in a line: ANS fluorescence change on oligomerization (also size-exclusion chromatography). The test is classed as binding. As to conditions: 2 mM nucleotide, 3 μM protein, 10 μM ANS, 8 mM MgCl2, pH 7.8; indirect, oligomerization read-out. Background: In gel filtration, larger molecules generally elute earlier.
Test [13] has as its target T1, LinClpA. The experiment in a line: malachite green phosphate release. The test is classed as biochemical. As to conditions: 8 mM Mg2+, pH 7.8, 37°C, 1 μM enzyme.

Sequence of ClpA (P0ABH9 whole entry): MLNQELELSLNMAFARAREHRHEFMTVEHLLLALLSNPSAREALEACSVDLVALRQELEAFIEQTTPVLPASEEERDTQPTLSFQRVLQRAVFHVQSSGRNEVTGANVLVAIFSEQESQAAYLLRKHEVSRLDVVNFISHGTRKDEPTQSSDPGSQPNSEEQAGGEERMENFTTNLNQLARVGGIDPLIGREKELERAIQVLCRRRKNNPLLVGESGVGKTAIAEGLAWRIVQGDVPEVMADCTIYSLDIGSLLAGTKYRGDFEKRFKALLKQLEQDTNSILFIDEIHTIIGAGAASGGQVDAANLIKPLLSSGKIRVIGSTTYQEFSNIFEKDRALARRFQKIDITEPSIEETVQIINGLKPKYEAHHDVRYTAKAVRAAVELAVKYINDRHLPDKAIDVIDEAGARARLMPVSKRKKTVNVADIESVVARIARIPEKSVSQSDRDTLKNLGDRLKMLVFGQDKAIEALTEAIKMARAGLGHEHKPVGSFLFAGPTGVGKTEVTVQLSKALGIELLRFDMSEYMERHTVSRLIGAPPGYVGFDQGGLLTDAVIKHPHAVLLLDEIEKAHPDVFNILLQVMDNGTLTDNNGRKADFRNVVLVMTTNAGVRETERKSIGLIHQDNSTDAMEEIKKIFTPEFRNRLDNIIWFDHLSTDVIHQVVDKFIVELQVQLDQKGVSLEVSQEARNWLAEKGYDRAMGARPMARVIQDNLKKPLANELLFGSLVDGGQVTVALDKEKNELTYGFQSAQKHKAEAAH

Usually Kd stands for the equilibrium constant for the complex coming apart. In the case of ClpA (from UniProt P0ABH9), the Kd in the test with ClpS (Escherichia coli) is 330 nM.

In the case of “LinClpA (ClpA ATPase chaperone of Leptospira interrogans) (enzyme)”, the ATPase activity of LinClpA (1 μM, malachite green) with LinClpS2 1–10 μM; dose-dependent inhibition; percent reduction at 10 μM in test [1] stood at 90 % reduction. Besides, the ATPase activity of LinClpA (1 μM, malachite green) with LinClpS1 1–10 μM; dose-dependent inhibition; percent reduction at 10 μM in test [2] is 57 % reduction. Further, the Kd in test [3] was 320 nM; in test [4], 280 nM; in [5] it was 440 nM; in [6], 280 nM. In test [7], this molecule came in with a degradation of eGFP-SsrA (2 μM) by the LinClpAP1P2 machinery (3 µM) after 60 minutes with LinClpS2 5, 10 and 15 µM, percent of the machinery without adaptor; value at 5 µM; total suppression at 10 µM (% of LinClpAP1P2 activity) of 39. In addition, the degradation of eGFP-SsrA (2 μM) by the LinClpAP1P2 machinery (3 µM) after 60 minutes with LinClpS1 5, 10 and 15 µM, percent of the machinery without adaptor; value at 5 µM; total suppression at 15 µM (% of LinClpAP1P2 activity) in [8] came out at 53. This molecule also came in with an ANS fluorescence intensity with ADP, percent of pure LinClpA in test [9] of 65%. For the same molecule, in [9], the ANS fluorescence intensity with ATP, percent of pure LinClpA worked out at 50%. Also, the ANS fluorescence intensity with PolyP, percent of pure LinClpA in [9] worked out at 55%.

As for `Nc1nc2c(ncn2[C@@H]2O[C@H](COP(=O)(O)OP(=O)(O)OP(=O)(O)O)[C@@H](O)[C@H]2O)c(=O)[nH]1` [GTP], on LinClpA [10], the “ANS fluorescence change on oligomerization” value (shortened to “ANS fluorescence change”) was “can interact with various nucleotides, including GTP, CTP and UTP, in addition to ATP”.

`Nc1ncnc2c1ncn2[C@@H]1O[C@H](COP(=O)(O)OP(=O)(O)O)[C@@H](O)[C@H]1O` [ADP]: the “ANS fluorescence, % of pure LinClpA” value on LinClpA [11] amounted to 65%.

As for `Nc1ncnc2c1ncn2[C@@H]1O[C@H](COP(=O)(O)OP(=O)(O)OP(=O)(O)O)[C@@H](O)[C@H]1O` [ATP], the “ANS fluorescence, % of pure LinClpA” value at LinClpA [12] is recorded as 50%. Also, the “malachite green phosphate release” value at LinClpA [13] is given as “LinClpA primarily utilizes ATP as its substrate”.

Regarding “LinClpA^∆N (N-domain-deleted variant of LinClpA) (domain or fragment)”, the Kd in test [4] and in test [6] was 280 nM each time.

As for `O=c1ccn([C@@H]2O[C@H](COP(=O)(O)OP(=O)(O)OP(=O)(O)O)[C@@H](O)[C@H]2O)c(=O)[nH]1` [UTP], the “ANS fluorescence change” value on LinClpA [10] was “can interact with various nucleotides, including GTP, CTP and UTP, in addition to ATP”.

Turning to `Nc1ccn([C@@H]2O[C@H](COP(=O)(O)OP(=O)(O)OP(=O)(O)O)[C@@H](O)[C@H]2O)c(=O)n1` [CTP], the “ANS fluorescence change” value at LinClpA [10] is “can interact with various nucleotides, including GTP, CTP and UTP, in addition to ATP”.
